Measurements published in US8247352B2, “Method of inhibiting ethylene production in plants” (The Regents of the University of California, priority 2005, dated 2012).

Assays:
Experiment in all cases: Initial velocity assays (rate of oxygen consumption) with ACC or substrate analogs
Assay type in all cases: biochemical, Lycopersicon esculentum
Settings in all cases: other: O2 consumption, 25° C., pH 7.2, [Ascorbate] = 30 mM, [O2] = 258 μM, [CO2/bicarbonate] = 20 mM
[1] = substrate: C[C@@H](N)C(=O)O
Protocol: (§1) Initial velocities were measured by the rate of oxygen consumption at 25° C., pH 7.2, using a YSI model 5300 biological oxygen monitor as previously described (Thrower 2001) with minor modifications. Standard reaction mixture (1 ml) contained 100 mM MOPS, pH 7.2, 20 mM NaHCO3, 100 mM NaCl, 20 mM sodium ascorbate, 0.1 mg/ml BSA, and ACC or substrate analog at various concentrations. Oxygen concentrations were kept at atmospheric concentration and determined using the oxygen monitor that was calibrated with air saturated water (258 μM oxygen at 25° C.). Reactions were initiated with 2 μL ACCO reconstituted with equimolar Fe(NH4)2(SO4)2. Data from initial velocity experiments with varying substrate concentrations were fitted to the Michaelis-Menton equation using the program Kalideograph.
(§2) The dependence of the initial velocity of oxygen consumption by ACCO:Fe(II) on the concentration of ACC or several substrate analogs was determined (Table 1). Either cyclic substrate analogs (including inhibitor Me-ACC, ACC-NH2, or ACC-OMe) or acyclic substrate analogs (AIB, D-Ala, or Gly) were used. […] Ascorbate and oxygen concentrations were kept constant at 30 mM and ˜258 μM, respectively.

[2] = substrate: CC(C)(N)C(=O)O
Protocol: as §1, §2

[3] = substrate: NC1(C(=O)O)CC1
Protocol: as §1, §2

B1: ACC Oxidase (ACCO, ACO1) (Solanum lycopersicum) (protein)
chain: MENFPIINLEKLNGDERANTMEMIKDACENWGFFELVNHGIPHEVMDTVEKMTKGHYKKCMEQRFKELVASKGLEAVQAEVTDLDWESTFFLRHLPTSNISQVPDLDEEYREVMRDFAKRLEKLAEELLDLLCENLGLEKGYLKNAFYGSKGPNFGTKVSNYPPCPKPDLIKGLRAHTDAGGIILLFQDDKVSGLQLLKDEQWIDVPPMRHSIVVNLGDQLEVITNGKYKSVLHRVIAQTDGTRMSLASFYNPGSDAVIYPAKTLVEKEAEESTQVYPKFVFDDYMKLYAGLKFQAKEPRFEAMKAMESDPIASA
notes: made in house; host or cells: Escherichia coli BL21 (DE3)pLysS
Km [1]: 4.42 ± 0.49 mm | kcat [1]: 0.497 ± 0.015 s⁻¹ | Km [2]: 0.92 ± 0.29 mm | kcat [2]: 0.368 ± 0.0267 s⁻¹ | Km [3]: 0.099 ± 0.018 mm | kcat [3]: 0.607 ± 0.0233 s⁻¹
